Experimental data taken from PMC4837182.

What was measured:
[1] = target: recombinant Plasmodium falciparum Hsp70-1 (PfHsp70-1), full length (Plasmodium falciparum); experiment: SPR; ProteOn XPR36, ligand amine-coupled to GLC chip, analyte 125-2000 nM at 50 μl/min, PBS-Tween with 20 mM EDTA pH 7.4, 25 °C, Langmuir fit; with 5 mM ATP
[2] = target: recombinant Plasmodium falciparum Hsp70-1 (PfHsp70-1), full length (Plasmodium falciparum); experiment: SPR; ProteOn XPR36, ligand amine-coupled to GLC chip, analyte 125-2000 nM at 50 μl/min, PBS-Tween with 20 mM EDTA pH 7.4, 25 °C, Langmuir fit; with 5 mM ADP
[3] = target: recombinant Plasmodium falciparum Hsp70-1 (PfHsp70-1), full length (Plasmodium falciparum); experiment: SPR; ProteOn XPR36, ligand amine-coupled to GLC chip, analyte 125-2000 nM at 50 μl/min, PBS-Tween with 20 mM EDTA pH 7.4, 25 °C, Langmuir fit; no nucleotide

“recombinant Plasmodium falciparum Hsp70-z (PfHsp70-z) (natural protein)” showed a Kd [1] of 0.0241 µM, a koff [1] of 2.42e-05 s⁻¹ and a kon [1] of 997 M⁻¹ s⁻¹. For the same substance, the Kd [2] was 12.1 µM, the koff [2] was 3.61e-05 s⁻¹ and the kon [2] was 298 M⁻¹ s⁻¹. It also gave a Kd [3] of 59.8 µM, a koff [3] of 2.96e-05 s⁻¹ and a kon [3] of 0.495 M⁻¹ s⁻¹.
